We go through 1 molecule from article PMC2821926, “Carboxy Terminal Tail of Polycystin-1 Regulates Localization of TSC2 to Repress mTOR” (PLoS ONE, 2010).

For the experiment, the target named is T1, GST-14-3-3β (UniProt P31946 1-246).
T1 construct: 14-3-3 beta; also called 14-3-3 proteins; source: E. coli DH5α (pGEX), batch-purified on glutathione Sepharose 4B beads
T1 sequence (looked up): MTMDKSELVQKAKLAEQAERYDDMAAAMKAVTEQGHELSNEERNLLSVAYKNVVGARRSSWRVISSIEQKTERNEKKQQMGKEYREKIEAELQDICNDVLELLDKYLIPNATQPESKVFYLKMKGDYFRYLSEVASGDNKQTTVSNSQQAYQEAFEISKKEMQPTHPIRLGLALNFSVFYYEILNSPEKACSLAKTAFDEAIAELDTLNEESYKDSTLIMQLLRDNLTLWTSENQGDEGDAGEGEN
As to the kind of experiment: pull-down; 10 µg GST-14-3-3β on glutathione Sepharose 4B beads mixed with 300 µg protein of lysates of HEK-293 cells expressing CD44-CP1 or Flag-CP1, overnight at 4°C; washed thrice in PBS; immunoblot with anti-TSC2. To be noted: one partner purified. For orientation: In western blotting, separated proteins are transferred to a membrane and probed.

B1: tuberous sclerosis complex 2 (TSC2) tumor suppressor (natural protein)
chain: not shown
notes: TSC2 (tuberin), endogenous in HEK-293 cells; also called tuberin; source: endogenous, HEK-293 lysate
For B1, the “fold enhanced binding in Flag-CP1 expressing cells relative to cells expressing CD44-CP1” value is around 2 fold.
